# Test results reported in patent US20130209454A1.
# What was measured:
# Assay in all cases: cell-based or functional assay
# [1] = biological target: Env of HIV-1 strain Ce0682_E4 (HIV-1)
# [2] = biological target: HIV-1 Env of strain REJO4541.67 (HIV-1)
# [3] = biological target: Env of HIV-1 strain 0815.v3.c3 (HIV-1)
# [4] = biological target: Env of HIV-1 strain WITO4160.33 (HIV-1)
# [5] = biological target: HIV-1 Env of strain CNE53 (HIV-1)
# [6] = biological target: HIV-1 Env of strain ZM247v1(Rev-) (HIV-1)
# [7] = biological target: HIV-1 Env of strain P1981_C5_3 (HIV-1)
# [8] = biological target: HIV-1 Env of strain C1080.c03 (HIV-1)
# [9] = biological target: HIV-1 Env of strain T278-50 (HIV-1)
# [10] = biological target: Env of HIV-1 strain 191821_E6_1 (HIV-1)
# [11] = biological target: Env of HIV-1 strain Ce703010054_2A2 (HIV-1)
# [12] = biological target: Env of HIV-1 strain SC05_8C11_2344 (HIV-1)
# [13] = biological target: HIV-1 Env of strain HIV-0013095-2.11 (HIV-1)
# [14] = biological target: HIV-1 Env of strain Q769.d22 (HIV-1)
# [15] = biological target: Env of HIV-1 strain BJOX009000.02.4 (HIV-1)
# [16] = biological target: HIV-1 Env of strain WITO4160.33 (HIV-1)
# [17] = biological target: Env of HIV-1 strain Du422.1 (HIV-1)
# [18] = biological target: Env of HIV-1 strain 89-F1_2_25 (HIV-1)
# [19] = biological target: HIV-1 Env of strain 191084 B7-19 (HIV-1)
# [20] = biological target: HIV-1 Env of strain Ce1086_B2 (HIV-1)
# [21] = biological target: HIV-1 Env of strain T257-31 (HIV-1)
# [22] = biological target: Env of HIV-1 strain T257-31 (HIV-1)
# [23] = biological target: HIV-1 Env of strain R2184.c04 (HIV-1)
# [24] = biological target: Env of HIV-1 strain 1006_11_C3_1601 (HIV-1)
# [25] = biological target: Env of HIV-1 strain T278-50 (HIV-1)
# [26] = biological target: HIV-1 Env of strain WEAU_d15_410_787 (HIV-1)
# [27] = biological target: HIV-1 Env of strain CNE5 (HIV-1)
# [28] = biological target: Env of HIV-1 strain CNE21 (HIV-1)
# [29] = biological target: Env of HIV-1 strain HIV-001428-2.42 (HIV-1)
# [30] = biological target: Env of HIV-1 strain CNE5 (HIV-1)
# [31] = biological target: HIV-1 Env of strain PVO.4 (HIV-1)
# [32] = biological target: Env of HIV-1 strain CNE17 (HIV-1)
# [33] = biological target: Env of HIV-1 strain 9004SS_A3_4 (HIV-1)
# [34] = biological target: Env of HIV-1 strain CAP45.2.00.G3 (HIV-1)
# [35] = biological target: Env of HIV-1 strain Ce2060_G9 (HIV-1)
# [36] = biological target: Env of HIV-1 strain 6480.v4.c25 (HIV-1)
# [37] = biological target: HIV-1 Env of strain ZM233M.PB6 (HIV-1)
# [38] = biological target: HIV-1 Env of strain 6811.v7.c18 (HIV-1)
# [39] = biological target: Env of HIV-1 strain 62357_14_D3_4589 (HIV-1)
# [40] = biological target: HIV-1 Env of strain A07412M1.vrc12 (HIV-1)
# [41] = biological target: Env of HIV-1 strain HIV-0013095-2.11 (HIV-1)
# [42] = biological target: HIV-1 Env of strain ZM214M.PL15 (HIV-1)
# [43] = biological target: HIV-1 Env of strain Ce2060_G9 (HIV-1)
# [44] = biological target: HIV-1 Env of strain X2088_c9 (HIV-1)
# [45] = biological target: Env of HIV-1 strain ZM135M.PL10a (HIV-1)
# [46] = biological target: HIV-1 Env of strain 3016.v5.c45 (HIV-1)
# [47] = biological target: HIV-1 Env of strain 263-8 (HIV-1)
# [48] = biological target: HIV-1 Env of strain CNE58 (HIV-1)
# [49] = biological target: Env of HIV-1 strain TRO.11 (HIV-1)
# [50] = biological target: HIV-1 Env of strain Ce704809221_1B3 (HIV-1)
# [51] = biological target: Env of HIV-1 strain MS208.A1 (HIV-1)
# NIH45-46 (antibody), sequence (VH): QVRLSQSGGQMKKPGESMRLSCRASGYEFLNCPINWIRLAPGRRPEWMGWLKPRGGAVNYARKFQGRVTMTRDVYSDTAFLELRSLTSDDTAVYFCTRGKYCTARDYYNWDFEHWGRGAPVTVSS
# NIH45-46 (antibody), sequence (V domain): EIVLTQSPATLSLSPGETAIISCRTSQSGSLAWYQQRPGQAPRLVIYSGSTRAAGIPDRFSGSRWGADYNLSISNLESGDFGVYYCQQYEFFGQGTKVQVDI
substance,measurement,setting,value
NIH45-46 (antibody),IC80,[1],0.155 µg/mL
same,"IC50, pseudovirus neutralization",[2],0.014 µg/mL
same,IC80,[3],0.052 µg/mL
same,IC80,[4],0.26 µg/mL
same,"IC50, pseudovirus neutralization",[5],0.008 µg/mL
same,"IC50, pseudovirus neutralization",[6],2.94 µg/mL
same,"IC50, pseudovirus neutralization",[7],0.08 µg/mL
same,"IC50, pseudovirus neutralization",[8],2.48 µg/mL
same,"IC50, pseudovirus neutralization",[9],> 50 µg/mL
same,IC80,[10],0.46 µg/mL
same,IC80,[11],0.538 µg/mL
same,IC80,[12],0.38 µg/mL
same,"IC50, pseudovirus neutralization",[13],0.01 µg/mL
same,"IC50, pseudovirus neutralization",[14],0.009 µg/mL
same,IC80,[15],1.16 µg/mL
same,"IC50, pseudovirus neutralization",[16],0.06 µg/mL
same,IC80,[17],> 50 µg/mL
same,IC80,[18],> 50 µg/mL
same,"IC50, pseudovirus neutralization",[19],0.02 µg/mL
same,"IC50, pseudovirus neutralization",[20],0.04 µg/mL
same,"IC50, pseudovirus neutralization",[21],0.49 µg/mL
same,IC80,[22],1.38 µg/mL
same,"IC50, pseudovirus neutralization",[23],0.034 µg/mL
same,IC80,[24],0.196 µg/mL
same,IC80,[25],> 50 µg/mL
same,"IC50, pseudovirus neutralization",[26],0.005 µg/mL
same,"IC50, pseudovirus neutralization",[27],0.09 µg/mL
same,IC80,[28],38.1 µg/mL
same,IC80,[29],0.01 µg/mL
same,IC80,[30],0.41 µg/mL
same,"IC50, pseudovirus neutralization",[31],0.12 µg/mL
same,IC80,[32],0.734 µg/mL
same,IC80,[33],0.65 µg/mL
same,IC80,[34],> 50 µg/mL
same,IC80,[35],0.29 µg/mL
same,IC80,[36],0.1 µg/mL
same,"IC50, pseudovirus neutralization",[37],2.5 µg/mL
same,"IC50, pseudovirus neutralization",[38],0.035 µg/mL
same,IC80,[39],0.19 µg/mL
same,"IC50, pseudovirus neutralization",[40],0.03 µg/mL
same,IC80,[41],0.03 µg/mL
same,"IC50, pseudovirus neutralization",[42],0.17 µg/mL
same,"IC50, pseudovirus neutralization",[43],0.058 µg/mL
same,"IC50, pseudovirus neutralization",[44],> 50 µg/mL
same,IC80,[45],2.79 µg/mL
same,"IC50, pseudovirus neutralization",[46],> 50 µg/mL
same,"IC50, pseudovirus neutralization",[47],0.05 µg/mL
same,"IC50, pseudovirus neutralization",[48],0.43 µg/mL
same,IC80,[49],7.49 µg/mL
same,"IC50, pseudovirus neutralization",[50],0.15 µg/mL
same,IC80,[51],0.6 µg/mL
